Here are results for two substances from patent US6818617.

Read-outs that look alike come from different tables or passages of the source.

Assay [1] deals with integrin α4β7 (UniProt P13612). The assay can be described thus: inhibition of cell adhesion: RPMI 8866 cells to MadCAM-1.
The target in assay [2] is integrin α6β1 on K562 cells transfected with α6 (UniProt P23229). The assay can be described thus: inhibition of cell adhesion: K562 (α6+) cells to laminin.
Assay [3] addresses integrin α4β1 on Jurkat cells (UniProt P13612). Put plainly: inhibition of cell adhesion: Jurkat cells to immobilized VCAM-1.
The target in assay [4] is integrin αIIbβ3 (human) (UniProt P08514). The assay can be described thus: cell-based or functional assay.
Assay [5] concerns the target integrin α4β1 on Jurkat cells (UniProt P13612). Put plainly: inhibition of cell adhesion: Jurkat cells to CS-1.
The target is the same in assay [6].
For assay [7], the target named is integrin α4β7 (UniProt P13612).
The target in the next assay is integrin αvβ3 (human) (UniProt P06756). Put plainly: inhibition of cell adhesion: VNRC3 (CHO αvβ3+) cells to immobilized vitronectin.
In assay [8] the target is integrin αIIbβ3 (human) (UniProt P08514). The assay can be described thus: inhibition of cell adhesion: A5 (CHO αIIbβ3+) cells to immobilized fibrinogen.

integrin α6β1 on K562 cells transfected with α6, sequence (P23229 24-1130, chain 1 of 2): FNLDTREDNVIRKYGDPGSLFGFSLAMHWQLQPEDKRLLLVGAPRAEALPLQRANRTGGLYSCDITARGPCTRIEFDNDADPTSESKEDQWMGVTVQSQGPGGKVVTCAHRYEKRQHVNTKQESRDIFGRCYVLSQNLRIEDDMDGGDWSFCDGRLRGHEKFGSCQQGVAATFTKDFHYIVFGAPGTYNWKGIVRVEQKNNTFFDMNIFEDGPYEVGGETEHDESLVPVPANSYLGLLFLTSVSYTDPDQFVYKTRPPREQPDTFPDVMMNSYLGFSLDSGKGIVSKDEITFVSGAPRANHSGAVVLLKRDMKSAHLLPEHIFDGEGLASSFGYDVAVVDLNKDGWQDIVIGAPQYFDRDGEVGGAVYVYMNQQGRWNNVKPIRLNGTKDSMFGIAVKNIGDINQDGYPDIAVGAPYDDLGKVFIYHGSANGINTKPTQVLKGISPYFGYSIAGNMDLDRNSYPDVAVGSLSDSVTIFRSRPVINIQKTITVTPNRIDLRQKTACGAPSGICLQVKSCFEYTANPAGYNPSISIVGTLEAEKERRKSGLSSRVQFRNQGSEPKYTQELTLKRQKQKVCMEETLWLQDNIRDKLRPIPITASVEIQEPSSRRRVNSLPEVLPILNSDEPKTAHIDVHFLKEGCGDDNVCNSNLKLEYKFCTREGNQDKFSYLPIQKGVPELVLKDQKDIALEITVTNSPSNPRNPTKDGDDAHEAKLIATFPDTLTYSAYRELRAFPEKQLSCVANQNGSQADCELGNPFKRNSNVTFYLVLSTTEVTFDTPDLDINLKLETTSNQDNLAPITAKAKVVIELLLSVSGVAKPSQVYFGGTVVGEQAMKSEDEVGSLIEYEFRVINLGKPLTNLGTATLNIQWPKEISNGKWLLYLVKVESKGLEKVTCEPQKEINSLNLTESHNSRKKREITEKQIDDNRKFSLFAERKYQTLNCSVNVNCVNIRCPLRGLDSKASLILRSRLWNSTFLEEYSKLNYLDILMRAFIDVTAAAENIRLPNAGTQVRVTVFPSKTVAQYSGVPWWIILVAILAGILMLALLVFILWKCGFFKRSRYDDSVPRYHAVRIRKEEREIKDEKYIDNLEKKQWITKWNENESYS
integrin α6β1 on K562 cells transfected with α6, sequence (P05556 21-798, chain 2 of 2, further chain): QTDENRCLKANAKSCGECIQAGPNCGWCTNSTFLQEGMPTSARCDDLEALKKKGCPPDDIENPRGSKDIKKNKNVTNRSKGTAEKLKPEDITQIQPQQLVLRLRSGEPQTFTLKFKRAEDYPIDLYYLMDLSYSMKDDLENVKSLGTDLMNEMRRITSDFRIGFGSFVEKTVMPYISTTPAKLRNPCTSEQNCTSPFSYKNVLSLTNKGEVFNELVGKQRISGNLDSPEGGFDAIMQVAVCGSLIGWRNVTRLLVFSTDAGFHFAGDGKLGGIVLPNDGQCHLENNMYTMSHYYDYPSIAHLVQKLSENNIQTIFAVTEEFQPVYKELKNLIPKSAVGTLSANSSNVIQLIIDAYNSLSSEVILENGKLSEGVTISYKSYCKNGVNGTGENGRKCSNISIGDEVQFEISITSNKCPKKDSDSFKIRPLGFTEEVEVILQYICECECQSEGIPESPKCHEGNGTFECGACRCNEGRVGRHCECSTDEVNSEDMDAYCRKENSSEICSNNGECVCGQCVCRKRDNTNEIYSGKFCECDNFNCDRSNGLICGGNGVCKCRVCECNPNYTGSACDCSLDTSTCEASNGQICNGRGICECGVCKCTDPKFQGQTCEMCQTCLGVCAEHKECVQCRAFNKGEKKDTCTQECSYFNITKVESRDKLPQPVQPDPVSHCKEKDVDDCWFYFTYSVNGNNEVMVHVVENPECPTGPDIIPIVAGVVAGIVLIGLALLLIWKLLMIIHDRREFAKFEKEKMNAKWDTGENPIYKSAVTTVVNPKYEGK
integrin αvβ3 (human), sequence (P06756 31-1048, chain 1 of 2): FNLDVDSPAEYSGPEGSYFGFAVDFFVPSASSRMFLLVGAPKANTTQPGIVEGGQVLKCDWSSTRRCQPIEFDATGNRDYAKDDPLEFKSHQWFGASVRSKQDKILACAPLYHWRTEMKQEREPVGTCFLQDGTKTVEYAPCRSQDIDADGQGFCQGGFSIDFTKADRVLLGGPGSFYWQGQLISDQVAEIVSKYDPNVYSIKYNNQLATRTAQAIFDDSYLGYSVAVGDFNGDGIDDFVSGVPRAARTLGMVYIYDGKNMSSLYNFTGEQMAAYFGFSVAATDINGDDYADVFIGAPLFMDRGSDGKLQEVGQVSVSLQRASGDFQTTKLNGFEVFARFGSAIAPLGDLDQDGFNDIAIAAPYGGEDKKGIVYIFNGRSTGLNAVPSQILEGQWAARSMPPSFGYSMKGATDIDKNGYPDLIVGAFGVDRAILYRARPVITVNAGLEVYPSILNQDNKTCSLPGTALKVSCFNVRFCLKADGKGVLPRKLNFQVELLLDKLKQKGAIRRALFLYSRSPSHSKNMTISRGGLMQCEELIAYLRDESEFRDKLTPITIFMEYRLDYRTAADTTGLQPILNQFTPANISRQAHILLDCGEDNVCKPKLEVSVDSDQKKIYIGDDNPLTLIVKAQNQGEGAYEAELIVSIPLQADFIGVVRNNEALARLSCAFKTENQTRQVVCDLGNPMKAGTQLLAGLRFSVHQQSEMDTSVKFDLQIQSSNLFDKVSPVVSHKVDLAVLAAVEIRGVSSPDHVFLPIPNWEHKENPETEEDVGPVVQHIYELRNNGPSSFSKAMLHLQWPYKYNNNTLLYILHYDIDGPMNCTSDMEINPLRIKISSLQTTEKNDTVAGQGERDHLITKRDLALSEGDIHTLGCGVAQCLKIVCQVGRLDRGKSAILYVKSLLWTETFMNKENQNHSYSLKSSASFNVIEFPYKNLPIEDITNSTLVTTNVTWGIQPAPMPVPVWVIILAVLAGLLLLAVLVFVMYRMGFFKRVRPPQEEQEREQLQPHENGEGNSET
integrin αvβ3 (human), sequence (P05106 27-788, chain 2 of 2, further chain): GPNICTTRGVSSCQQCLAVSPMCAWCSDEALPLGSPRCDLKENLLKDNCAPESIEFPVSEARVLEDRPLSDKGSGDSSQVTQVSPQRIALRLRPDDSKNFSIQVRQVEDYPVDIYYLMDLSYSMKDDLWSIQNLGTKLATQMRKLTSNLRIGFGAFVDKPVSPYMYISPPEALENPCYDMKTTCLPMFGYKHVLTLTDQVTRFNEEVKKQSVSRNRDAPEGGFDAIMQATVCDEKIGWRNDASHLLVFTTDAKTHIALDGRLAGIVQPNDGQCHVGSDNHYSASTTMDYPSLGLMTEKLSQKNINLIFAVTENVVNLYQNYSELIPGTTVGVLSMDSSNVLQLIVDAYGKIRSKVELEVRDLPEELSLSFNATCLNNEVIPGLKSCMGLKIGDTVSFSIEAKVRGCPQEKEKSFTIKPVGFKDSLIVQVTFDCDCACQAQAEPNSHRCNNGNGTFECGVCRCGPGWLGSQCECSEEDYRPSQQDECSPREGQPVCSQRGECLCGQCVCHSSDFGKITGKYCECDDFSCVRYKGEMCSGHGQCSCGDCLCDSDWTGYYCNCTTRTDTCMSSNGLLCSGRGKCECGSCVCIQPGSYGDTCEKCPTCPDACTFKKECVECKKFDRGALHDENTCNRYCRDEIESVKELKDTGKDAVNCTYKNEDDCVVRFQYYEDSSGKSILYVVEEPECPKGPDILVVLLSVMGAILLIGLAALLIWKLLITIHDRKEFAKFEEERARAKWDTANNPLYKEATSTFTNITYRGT

By IC50 is commonly meant the concentration needed to halve the response being measured. Read a high IC50 as a need for much substance. Regarding “EC-3 protein, heterodimeric disintegrin from Echis carinatus suchoreki venom (from UniProt P81630 1-67; P81631 1-67)”, the IC50 was 5 nM with integrin α4β7 [1]; over 10000 nM in assay [2]; 25 nM in assay [3]; 100 nM in [5]; 28 nM in assay [6]; 6 nM in the assay with integrin α4β7 [7]. Besides, the IC50 with integrin αvβ3 (human) was over 10000 nM; with integrin αIIbβ3 (human) [8] it was 500 nM. Moreover, the IC50, ADP PA (ADP-induced platelet aggregation in platelet rich plasma) with integrin αIIbβ3 (human) [4] is 1000 nM.
Regarding Echistatin (from UniProt P0C6R5 4-52), the IC50 in the assay with integrin α4β7 [1] was over 10000 nM; in [2] it was over 10000 nM; in [3], over 10000 nM; with integrin αvβ3 (human) it was 50 nM; with integrin αIIbβ3 (human) [8], 50 nM. Besides, the IC50, ADP PA (ADP-induced platelet aggregation in platelet rich plasma) with integrin αIIbβ3 (human) [4] was 130 nM.
